Test results from patent publication US20090028842A1, “Dekkera/Brettanomyces Cytosine Deaminases And Their Use” (ZGene A/S, priority 2005, published 2009).

Experiments:
[1] = CD activities with purified his-tagged proteins; type: biochemical; conditions: purified his-tagged protein, 37° C., cytosine 500 μM, triplicates, mean with standard deviation
Protocol: For recombinant protein expression, E. coli cells were grown to a density of A600 nm=0.5-0.6 in LB medium supplemented with 100 μg/ml ampicillin, and the expression was induced with 10 μM IPTG for 8 h at 25° C. The cells were harvested by centrifugation, and the pellet was resuspended in 25 ml ice-cold binding buffer A […] (50 mM sodium phosphate pH 8.0; 300 mM NaCl; 10% glycerol; 25 mM imidazole) containing protease inhibitor cocktail (Complete™-EDTA free from Roche Diagnostics). The cells were homogenized using a French Press, subjected to centrifugation at 12,000×g for 30 minutes (4° C.), filtered through a […] Whatman glass microfiber filter and a […] cellulose acetate filter, and loaded onto a 5 ml Ni^2+-NTA column (Qiagen). […]
Bacteria or cell lines were grown as described, harvested and stored at −80° C. until activity testing. […] Cytosine deaminase activities were determined spectrophotometrically by monitoring the absorbance decrease at 286 nm (Δε286=−0.68 mM^−1 cm^−1) resulting from the deamination of cytosine to uracil. […]
To characterize the substrate specificities of yeast CDs, purified proteins were measured at 37° C. and fixed cytosine concentration and assays was performed as described in Example 1 (Enzyme assays) (Table 3).

[2] = CD activities in crude extracts of BL21 cells transformed with CD genes; type: biochemical; conditions: cytosine 500 uM, triplicates, mean with standard deviation
Protocol: Bacteria or cell lines were grown as described, harvested and stored at −80° C. until activity testing. Cells were submitted to brief sonication in extraction buffer (50 mM Tris/HCl pH 7.5, 1 mM DTT, 10% (v/v) glycerol, 1% (v/v) Triton X-100, protease inhibitor cocktail Complete™ from Roche Diagnostics). Cytosine deaminase activities were determined spectrophotometrically by monitoring the absorbance decrease at 286 nm (Δε286=−0.68 mM^−1 cm^−1) resulting from the deamination of cytosine to uracil. Assays were initiated by the addition of CD to 0.5 mM cytosine in 50 mM Tris-HCL at pH 7.5 and 30° C. and followed for 150 sec. One unit of CD was defined to catalyze the formation of 1 μmol of uracil per min. Dual beam recording ZEIS spectrophotometer, thermostated at 30° C., was used for the assays.
To better characterize D. bruxellensis CD over expression of the protein in bacteria was done. In addition to D. bruxellensis CD, homologous genes from S. cerevisiae was also amplified from total genomic DNA and cloned as histidin tagged construct into pET100 bacterial expression vector. The plasmids were transformed into E. coli BL21 strain and protein expression was induced by IPTG for 8 hours. After harvesting, cell extracts were spectrophotometrically measured for cytosine and 5-FC deamination. All yeast CDs tested were functional when expressed in bacteria (Table 2).

[3] = type: physicochemical; conditions: storage at 50° C., his-tagged enzyme
Protocol: Purified and his-tagged CD from D. bruxellensis and S. cerevisiae CD were assayed after different periods of storage at 50° C. and 37° C. (FIGS. 8a and 8b). Indeed, D. bruxellensis CD was extremely stable at 50° C. when compared to S. cerevisiae CD which lost all activity after only 4 minutes. Half life for D. bruxellensis CD at 50° C. was app. 3 hours (FIG. 8a). […] It should be observed that the temperature stability of the proteins without his-tags could be different.

B1: Sc CD (PZG738): cytosine deaminase from Saccharomyces cerevisiae (FCY1 gene), recombinant his-tagged protein in pET100 (protein, UniProt Q12178 1-158, looked up)
Cytosine deaminase: MVTGGMASKWDQKGMDIAYEEAALGYKEGGVPIGGCLINNKDGSVLGRGHNMRFQKGSATLHGEISTLENCGRLEGKVYKDTTLYTTLSPCDMCTGAIIMYGIPRCVVGENVNFKSKGEKYLQTRGHEVVVVDDERCKKIMKQFIDERPQDWFEDIGE
modifications: His tag
notes: cytosine deaminase from Saccharomyces cerevisiae (FCY1 gene), recombinant his-tagged protein in pET100
- CD activity, Cytosine [1]: 888.4 ± 4.8 U/mg/min
- CD activity, Cytosine [2]: 40.69 ± 0.56
- Time after which all activity was lost [3]: 4 min
